Laboratory results taken from PMC7246340, “A Novel Anti-Kv10.1 Nanobody Fused to Single-Chain TRAIL Enhances Apoptosis Induction in Cancer Cells” (Frontiers in Pharmacology, 2020).

B3: h1x antigen (E3-S5-pore segment fused to the C-terminal coiled coil domain of Kv10.1 and to thioredoxin) (domain or fragment, human)
chain: IGDYEIFDEDTKTIRNNSWLYQLAMDIGTPYQFNGSGSGKWEGGPSKNSVYISSLYFTMTSLTSVGFGNIAPSTDIEK
notes: Kv10.1 voltage-gated potassium channel, E3 segment (extracellular linker between S5 and S6 transmembrane segments, extending to the pore loop); numbers count on: Homo sapiens Kv10.1, isoform 1 (UniProt O95259-2); Kv10.1 voltage-gated potassium channel, C-terminal tetramerizing coiled-coil (C-terminal assembly domain); The coiled coil was added with the aim to induce tetramerization; the …

Legend:
[1] = target: B3; experiment: ELISA; plates coated overnight with 500 ng h1x in TBS, blocked with 2% BSA; VHHs (E. coli culture supernatants) incubated 2 h at different concentrations; detected by mouse anti-His antibody and peroxidase-conjugated anti-mouse; apparent affinities; conditions: one partner purified
[2] = target: B3; experiment: as above; conditions: one partner purified; remark: listed apart in the source
[3] = target: B3; experiment: SPR; recombinant antigen h1x immobilised on the chip; serial dilution of nanobody as analyte (D9 3.12 nM to 200 nM, C4 25 nM to 400 nM); 1:1 Langmuir model; conditions: both partners purified
[4] = target: T1, VHH-D9-scTRAIL (llama (Lama glama) | ); experiment: ELISA; plates coated with 500 ng h1x or h2x, blocked with 3% BSA; Ab-scTRAIL constructs (CHO-K1 supernatants, not further purified) incubated 2 h at different concentrations; detected with the anti-TRAIL conjugate of the Quantikine TRAIL ELISA kit; apparent affinities; conditions: one partner purified
T1 construct: nanobody D9, as the VHH of m4 without its His tag; TRAIL (Tumor Necrosis Factor-Related Apoptosis-Inducing Ligand) fragment, first of three in single-chain TRAIL; short peptide linker between TRAIL fragments; TRAIL fragment, second of three in single-chain TRAIL; TRAIL fragment, third of three in single-chain TRAIL; a linker between VHH and scTRAIL is not described; Vector tags were eliminated by …

[5] = target: B3

B1: anti-Kv10.1 nanobody VHH-C4 (VHH)
VHH: RLLLVQSGGGLVQAGGSLRLSCAASGRTFSNYAMYWFRQTPGKDREFVASISYSGTFTDYAGSVKGRFTISRDNAKNTLYLQMNSLRPEDTAVYYCSLDRHYWGPGTQVTVSS
notes: Short CDR3 (six residues); His tag comes from the phage display vector; The preparation used for SPR is not described; source: E. coli TG1TR, culture supernatants (ELISA)
Work on B1 yielded a Kd [1] of 81 nM, a Kd [2] of 87 nM and a Kd [3] of 1800 nM.

B2: anti-Kv10.1 nanobody VHH-D9 (VHH)
VHH: QVQLVQSGGGLVQAGGSLRLSCAASGRTFSNYAMYWFRQTPGKDREFVASISYSGTFTDYAGSVKGRFTISRDNAKNRLYLQMNSLKPEDTAVYYCSLDRLYWGQGTQVTVSS
notes: a model in PDB format is also in the Supplementary Information; Short CDR3 (six residues); His tag comes from the phage display vector; The preparation used for SPR is not described; source: E. coli TG1TR, culture supernatants (ELISA)
B2 gave a Kd [2] of 11 nM and a Kd [3] of 78 nM.

Binder B3 has a Kd [4] of 0.029 nM.

B4: anti-Kv10.1 nanobody G1 (VHH)
VHH: VQLVEVWGRIGAKRGGSLRLSCTAAGRTFSSYILAWFRQAPGEERKFVAGITGNGETGYSNSVKGRFTISRDNAKNTVLLQMNNLKPEDTAVYYCAAHSRSIYYYRGPDLYDYWGQGTQVTVSS
notes: From a phage display library of a llama immunised with h1x; His tag comes from the phage display vector; source: E. coli TG1TR, culture supernatants (ELISA)
B4 was tested, and the Kd [2] was 431 nM.

B5: E12 (VHH)
VHH: EVQLVESGGGLVQAGGSLRLSCTASGRTFSSYIFAWFRQAPGEERKFVAGITGNGGTGYSNSVKGRFTISRDNAKNTVLLQMNNLKPDDTAVYYCAAHSRSSYYYRGPDLYDYWGQGTQVTVSS
B5: binds [5].

B6: anti-Kv10.1 nanobody G4 (VHH)
VHH: QVQLVQSGGGLVQAGGSRRLSCTASGRTFSSYILGWFRQAPGEERKFVAAITGNGGTGYADSVKGRFTISRDNAKNTVLLQMNSLKPEDTAVYYCAAHSRSSYYYRGPDLYDYWGQGTQVTVSS
notes: as for B4
Work on B6 yielded a Kd [2] of 943 nM.

B7: anti-Kv10.1 nanobody A12 (VHH)
VHH: RCKLQESGGGLVQAGGSLRLSCTAAGRTFSSYILAWFRQAPGEERKFVAGITGNGETGYSNSVKGRFTISRDNAKNTVLLQMNNLKPEDTAVYYCAAHSRSTYYYRGPDLYDYWGQGTQVTVSS
notes: as for B4
In the case of B7, the Kd [2] is reported as 343 nM.

B8: anti-Kv10.1 nanobody F6 (VHH)
VHH: QVQLVQSGGGLVQAGGSLRLSCTASGRTFGSYILAWFRQTPGEERKFVAGITGNGGTGYSDSVKGRFTISRDNAKNTVLLQMNNLKPEDTAVYYCAAHSRSSYYYKGPDLYDYWGQGTQVTVSS
notes: as for B4
Binder B8 has a Kd [2] of 177 nM.

B9: anti-Kv10.1 nanobody F5 (VHH)
VHH: QVQLVQSGGGLVQAGGSLRLSCAASGRTFENYIMAWFRQAPGEERKFVAAITGNGGTGYADSVKGRFTISRDNAKNTVLLQMNSLKPEDTAVYYCAAHSRSSYYYKGPDLYDYWGQGTQVTVSS
notes: as for B4
Binder B9 has a Kd [2] of 470 nM.

B10: G10 (VHH)
VHH: EVQLVESGGGLVQPGGSLRLSCTAAGRTFSTYILAWFRQAPGEERKFVAGITGNGETGYSNSVKGRFTIARDNAKNTVFLQMNNLKPEDTAVYYCAAHSRSTYYYKGPDLYDYGQGTQVTVSS
B10: binds [5].
